Reference: the DeepSol protein solubility set

Test: soluble on expression in E. coli; label from the status in PepcDB or PDB records

Sequence | soluble on expression in E. coli
MGSDKIHHHHHHMSKPTQYGIIGCGMMGQEHLRNIALLPDARVAAIFEPNALMQAEAAKFAPDAQFVDSVEALLAIAELDCIMIASPNFRHVEQLETLASQNPLPVLVEKPLFTTLDDLNRIEEFAAHYPAPVWVAMEYRYMPPITAFLNEADTATGGIKMLTVREHRFPFLSKVDDWNRFNAQSGGTFVEKCCHFFDLMRLALKSEPVRIMASGGQDVNHLDERYDGSVPDILDNGYVIVEFESGARAMLELCMFAEGSKYQEDVSAVGPNGKVEAFVPGPGRFWPSHLGDAPVPKLVLSPRNPKGPEERDIPVDPTILDAGDHNGSTFYQHQKFLELVRGERSTPEVSLNDGKMAVLMGLAAQMSIAENRTVEISELL | not soluble
GNMDSKAVEELSATECHQWYKKFMTECPSGQLTLYEFKQFFGLKNLSPSANKYVEQMFETFDFNKDGYIDFMEYVAALSLVLKGKVDQKLRWYFKLYDVDGNGCIDRGELLNIIKAIRAINRCNEAMTAEEFTNMVFDKIDINGDGELSLEEFMEGVQKDEVLLDILTRSLDLTHIVKLIQNDGKNPHAPEEAEEAAQ | soluble
MLTVDQVKELVGEIKDPIIDVPLKETEGIVEVSIKEEKEHVSVKLAMAQLGGAPQLDLQMAVVNALKENGAKTVGIRFETLPEEKVNQFKPKEENKPKTIEGLLSQNNPVEFIAIASGKGGVGKSTVAVNLAVALAREGKKVGLVDADIYGFSVPDMMGIDEKPGIKGKEVIPVERHGVKVISMAFFVEENAPVIWRGPMLGKMLTNFFTEVKWGDIEYLILDLPPGTGDVALDVHTMLPSSKEIIVTTPHPTAAFVAARAGAMAKHTDHSILGVIENMSYFESKETGNKEYVFGKGGGTKLADELNTQLLGELPLEQPSWNPKDFAPSIYQSDDRLGKIYSSIAQKVIAATNKLEHHHHHH | soluble
MYLPAHFAETRPEELARIIRAHPLGMLVTQDAQGLDADHLPFEFDPDAGPHGTLIAHVARANTLWQRCPDGSAVMVVFRGAEGYISPNWYPSKHEAHRQVPTWNYEVVHAHGTLAVRDDERFVRGVVARLTRRHEAGEPRPWKMTDSTPEYIDSMLRNIVGIEVAITSLVGKRKLSQNKDERDRLGAVQALQARGQDTLAQSMARAELEHHHHHH | not soluble
MFEKVKVSTCFHVTLLKDYIVFYVSNNLNFASRWPRRRRGQRLLPTALRAMMLNPTEALLAEVSKARTSGARITVEEFIPIYKKVEAACGRSTTLKEFQTLLSHFDREGNGQIMLMELKSMLQNGGEKMTNQEARALKPATGLDTIYRNLNFNHKFTLDHSAIGFLRTNQFFDVQMIPVSRFFTVQDPSNALLSYTQKGIDFFEKLGQFSKEKAAIEEEYSTKLRSLAKKYAKKSEEDDEILKSVSYTSSFNSFLQQLDQIATRHQTSAEHIRGGVVSYVASKTCQMRSSRKNAINDLKTINDKLEDQINEMCKSGKCYLKSFKDAENSYQKFYKADKNLEISRLELEKARALANARNEACELAKQDYSALVRKTNAEQKRYHVELLPVIFARLKAVDKECIADMRQVLQKIVSFDDSLADSTEECRKIMQREVGKIDAEGDAQLVLKSVEATIEQPAPFEIEDLGDPKNCDSRTNDSADGSGGKLLKSSPSKNRIIRNFLGILKEKEADEKPEASNNDQLMYTDKSKPAHVRLSCLRSKIRDMEKQLEQAIQGREGITRLQQAYYTNPQHGNPSACTEPLISYAKKIEKLKMDIHNLKEFYAMLEMSVEEGQERSFGGRDTPDTTRSMSGSSTNQSSSKTIEDVLSGEAGNSSSADDSSKNILRQLFTTPKRLISSPKTSKSSTPTPLRRRAEISSPKILRSSFSGAIRKSLSTPDSVKVETAVTVTALFEFAKSSAETMSIEQGEILLVLEHDHGDGWTRTKKKHNEESGFVPTSYLQFPQ | not soluble
RYISESGSDKVQFLISTNIGEPLRPLEKIVSGGELSRIMLSMKTVFVNKDKIPSVIFDEIDTGISGRIAERVADKMYAVSENHQVFCVTHLPQIACMSDTQFMV | not soluble
MAHHHHHHMAWCDASFSVIYGNEELVVVNKPHDVPMDGEACPVTVEKWAWAYLAKGGCADNNAGGGVEKEDDTTRTAGRRRGEKKMVKFVHQLDYATSGVLCVAFSREMAARLAHCFEMRTTRKAYLAVLFGMMPTTSAMQKKLDTDTGVDFLRGSPYASHVRRVSMDDVPGVCFIRKCVIEASGHEEGENADCCATLLEVNLPVGYDTTDHEGFRMTVNGRDARGSVTYLSVLQRGYMTHPTSGCPVPVTKVALFPRTGRRHQLRVHCHAIGFPILGDVTYARIPTPRVAPKVTGAEEVATVGATESINAPNEIGAIEAWQRMMLHAWRLSFPVSVEPLRSGSERYMQKKKRRRETLGLAVAGGDDTTVWTHFETEDPFQLVRPE | not soluble
MALSKLNHLYMAVVADHSKRPHHHGQLDGVEAVQLNNPTCGDVISLTVKFDEDKIEDIAFAGNGCTISTASSSMMTDAVIGKSKEEALALADIFSEMVQGQENPAQKELGEAELLAGVAKFPQRIKCSTLAWNALKEAIKRSANAQHLTDQNVKEGKNV | soluble
MRGSHHHHHHTDPALRANKVAQYYRELVASLSERLRNGERDIDALVEQARERVIKTGELTRTEVDELTRAVRRDLEEFAMSYEESLKEESDSVFMRVIKESLWQELADITDKTQLEWREVFQDLNHHGVYHSGEVVGLGNLVCEKCHFHLPIYTPEVLTLCPKCGHDQFQRRPFEPGLCGR | soluble
MPLGLFSSGKAQVLCDEKIPGGKKKEPKQLSENKCKGVTLKLDHTRVTIEKQIAEGGFAIVYVASDRKNNKFALKRQFTKDNEKQLEACCREHSFLKQCIGHKNIVEFVDSYTNCLGNGIWECMLLTEYHQKNVLQLMNERISQNQYLTNDEILSIFTDLCEAVSFIHNRPQPIIHRDLKVENVLISSHKPPHYVLCDFGSATTQILSVEKYGVEYVKSEVERNTTMCYRSPEMIDFYSGLEIGLKSDIWALGVLLYRLCFFCVPFEESPLAIQSVNYQFPSVPNIPDEIKVLIYMLLDIDVNRRPSIYQTSVLAFEANHRKPLSEEIQNKKCTDAVPSLKSCIQLMRDGSNPRNKRDSSPRNPEAPPIQSSSKMASLSQQVPSISNISMPSGSGTVETSVAPRLRPKATTVVPNVPSISPVPPVGLPHLRLPSKGSTDETDGSQVRKVPIDFHHRQSFSGEEQLKPAAEADSAGPLSCPLIKPTDLGFTDLDKPALPRDRAQTDGKRRLPHESDIIFQQQHRRNVSDTSQISRSAFKPYSSQQTTSKTSSQVVRSVEDMSQRQNGGSGEWNPFLVAPFSNNSISRKDGQESAFMMDDSHFGMVFDEIRRKEIPAELDSETSSIDSRDPFGAAPFDQLTVSTSSSAQPVSLPPGSVHLHTSIAPSPLLRHVLTKAPPPVPRRTTSRGFQV | not soluble
MIDMFHINIPFKKDVIIEMGDCGFVDFAKLAEKTELKIACGNVEFSVVNDQKKVRTDDLYHPWSTIPSSYTDIACKVFDAEPRANVFWGYLQLKASPAKVMQGHNVYGSEDFRLCVEYLLDSLQKAQPELWELLDVGLAEMTRIDCTYSIKCANPDILRQTIKQMGNVSNRYIKPARNSDFETTLYFNRATKANPGAGRSFELCIYTKHDEIAHQLADLKRRARQGDSDRFNRIIDELSKPELQAFAANRLRFEGRAKKRFIQKHVGSANLWQVIRHAEQFEAKNGYRFCEWMFKTLFHDLLESLKGEELELYNDSKIKQLLRDAYSTMTPKLEHHHHHH | soluble
MNSPFAAETLLFERSRPRPEALRVIYGFPNTYSVGITSLGYQLVWAQLASRADVAVSRLFTDVQEPLPRDPELVGFSFSWELDYGNLLVLLEQLGIPIWQRDRHDCHPLVFGGGPVLTANPEPFADFFDVILLGDAEPLLDPFLTTMAQVRTAARSQRLEALAHVPGIYVPSLYHVSYSHPTGPIQRIEPIKASVPPTVTKQVHRGHTLAASTVVTPLAAWENIYMVEVVRSCPELCRFCLASYLTLPFRTPSLETLIPAIERGLAVTDRLGLLGASITQHPEFPALIEHLGQPQFDHVRVSLASVRTNTVTESLAQLLSQRGSQSLTIAIETGSERLRQVINKKLETEEILAAASHAQAGGLKGLKFYGMVGLPTETDADVAATVDLFCQLKKTAPRLRLTLGCSTFVPKAHTPFQWWGVQPVAEKRLKFLKKELAKLGIEFRPESYNDSLIQALISRGDRRLAPLLEQVRHYGTSLGSYRRAFKERQGQLPDFEAYVNANWPEETVLPWQHLQSGLPTKTLENHLKRAIALEHHHHHH | not soluble
MDHIVLTHVFNGGSAESAALCPQDKIIALDGYACTDFAAQWARYHVRAKINIHFFRAGILRQTVLTVQATALEHHHHHH | not soluble
MGSDKIHHHHHHMGSAAQFRRWIRPSARLCNAPFIRATVQVHWRNLYLLSRRSAPRRFHADQEKDMTPRSIIAAGALFAAVATAPAAWASSTYMGALTEAEVLAAQKAWGEALVAISREHEAGGQAKAKALASTVLDKAYGYNLGPVLFKPTLTMAPQTFRTTKDGALAYFVGGDPNYPNDKGFALQGWRSVAIKNAAIQIHGDVATTTGNVMITDKNGNVTTVDKTWAFKKTDDGAIRIVVHHSSLPYTAK | not soluble
SLDIRALGYFVAQTDAPQEWQHYAEQVLGMMTAPTDDGGFYIKMDERPYRMLVIPGADKRYFASGWELTGAKAYNNAKQTLLDKGIAFEEANKALCEQRRVQNILIVNDPAGNRHELYWGHVSDCQPFTSPQGVPAFITGDMGLGHTVLPAPNFDETFAFLTDVLGFELSDLFNFKPAPEADPIRIYFMHCGNARHHSLAICEFPVPSGCVHAMVEVENMTEVGRAHDRQQQHQVQLSATLGQHLNDKMTSFYMKTPSGFDLEYGFGGLQVENWEEHCAFEFSRVSLWGHDFSVGEKEG | not soluble
MGSDKIHHHHHHMALRKNRGSRMQRNVIAMTEPKSLNSEQYRTIRTNIEFASVDRQMKSVMITSACPGEGKSTTAANLAVVFAQQGKKVLLIDADLRKPTVHTAFFLENTVGLTSVLLKKSSMEQAVQASNEKHLDVLTSGPIPPNPAELLSSKWMKELAYEACAAYDMVIFDTPPILAVADAQILGNVADGSVLVISSGKTEKEQAAKAKEALATCKSKLLGAIMNGKKLSKHSEYGYYGTKDNFMQK | not soluble
MINMKALVGGIILPVSSPPIKNGVLLFDEESGKIVAVGKKEEVTIPEDAEIIEAPGKYISPGFVDAHSHIGMIPDGLEWEFQEANDFYSPIAPHLRAVDGFDPYDEAFKEAIAGGVTTVATGPGSANVMGGIGLLAKTYEEGFEKIIKPEAFIKMALGPKRPREYKSKYPYPTTRMGTVALMRTWFKRAREFMEGKIKTDNIDEEEIEMLRLLARALKREIQVKIHLSTSPDEIYAAIRIIKEFNLNATIDHAFGSQLVADMLSREGIPVIYGPPMITRIASFFRYVDDKAPVLLFKKGVNVSIMTDHPVLPEKHLRLLAAVVARNGLSLDDALKLITINPAKALGIDRFVGSLEPGKDADIVISSDHPIKPTSKIEIVFGRGREVYKAD | soluble
MNNRDQLFKAPPFENHSPLTWYQAASQLPNFIRDDAQAAAIEHLDRLWTELMMFKRKRNRFLGRSLRSPQVPKGLYFYGGVGRGKSFLMDAFFGCLPYRRKRRVHFHAFMAEIHRRLKALKSESNPLKSVAAEITKETRVLCFDEFHVSDIADAMILGRLLENLLNEGVVLVATSNYAPSELYPQGQNRSGFLPTIALIESSLTVLNVDGGEDYRLRTLRPAEIFFTPANEENEAKLAKLFKEMTGITDLNPGISTIHGREIPHKAESGRTIWFDFRALCFSPRSQSDYLYLAEHYEMVFISGLEQLSPQEKAEARRLTWLIDVLYDFRVKLCATGAVDVNHIYTEGDFAEEFTRTASRMVEMQSEVYLEQPHLTLSPKASGGLEHHHHHH | soluble
MGSDKIHHHHHHGIDNGTPKSKNEIGVNTIVKKSSRAAVTSNSSFTSFKLHAYIVKSNDIATSGWGNAYMDGIEYKGGQGSWATTSGTFYWPITEMQFFGYTNDVTYTAPASSNAYPTISYTLPDTPADQKDIIVAYSKDVTKPSDNTLNLTFQHILTRINFAVKLVDSSYTYTVESITITGAKGGTATYTFGGTEGKGGNWNITGSAPASGYSYTFDNTVTAKDGIYDYTQNDNSLMLYPQSLTDAKIIVKYKTEKDNATFFNDSKEVSLTGEWTNGQSIRYILTLPVGAEEMSVNTTYDENWDATDNEQTPKNPAS | not soluble
